Consider 3 substances from patent publication US5039791A, “Peptide fragments of tissue plasminogen activator” (Monsanto Company, priority 1989, dated 1991).

Where no end group is shown, it is not given here.

The test deals with T1, fibrin (Homo sapiens, UniProt P02671+P02675+P02679).
T1 construct: purchased Kabi Vitrum
T1 sequence (P02671 20-644 isoform P02671-2 limits assumed): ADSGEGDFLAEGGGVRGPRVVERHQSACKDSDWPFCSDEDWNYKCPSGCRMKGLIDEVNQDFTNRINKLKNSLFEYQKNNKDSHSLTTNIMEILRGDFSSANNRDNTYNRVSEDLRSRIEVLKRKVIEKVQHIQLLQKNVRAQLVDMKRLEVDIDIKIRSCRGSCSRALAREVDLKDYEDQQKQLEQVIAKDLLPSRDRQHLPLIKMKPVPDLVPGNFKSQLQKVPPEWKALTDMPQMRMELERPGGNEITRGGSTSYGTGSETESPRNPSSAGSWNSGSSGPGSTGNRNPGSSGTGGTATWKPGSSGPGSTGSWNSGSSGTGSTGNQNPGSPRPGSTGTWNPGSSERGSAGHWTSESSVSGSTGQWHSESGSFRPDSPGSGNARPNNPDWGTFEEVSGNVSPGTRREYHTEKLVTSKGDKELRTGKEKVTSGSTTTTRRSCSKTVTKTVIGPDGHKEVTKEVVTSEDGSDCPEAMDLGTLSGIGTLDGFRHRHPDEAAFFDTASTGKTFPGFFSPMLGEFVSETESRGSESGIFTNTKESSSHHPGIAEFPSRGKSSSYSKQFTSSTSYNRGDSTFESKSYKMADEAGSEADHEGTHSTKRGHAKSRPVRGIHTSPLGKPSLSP
T1 sequence (P02675 45-491 limits assumed): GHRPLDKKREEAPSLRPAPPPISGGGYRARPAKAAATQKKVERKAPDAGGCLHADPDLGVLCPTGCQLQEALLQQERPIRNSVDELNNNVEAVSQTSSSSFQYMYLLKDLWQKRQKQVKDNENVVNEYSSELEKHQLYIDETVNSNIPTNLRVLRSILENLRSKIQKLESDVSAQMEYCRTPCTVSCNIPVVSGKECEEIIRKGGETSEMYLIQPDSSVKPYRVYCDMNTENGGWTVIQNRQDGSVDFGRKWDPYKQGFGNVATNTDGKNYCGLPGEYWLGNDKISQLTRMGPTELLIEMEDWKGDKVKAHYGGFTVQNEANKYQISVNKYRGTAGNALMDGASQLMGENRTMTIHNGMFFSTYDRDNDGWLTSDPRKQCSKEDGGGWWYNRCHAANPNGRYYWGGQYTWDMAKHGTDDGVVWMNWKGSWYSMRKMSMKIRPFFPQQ
T1 sequence (P02679 27-437 isoform P02679-2 limits assumed): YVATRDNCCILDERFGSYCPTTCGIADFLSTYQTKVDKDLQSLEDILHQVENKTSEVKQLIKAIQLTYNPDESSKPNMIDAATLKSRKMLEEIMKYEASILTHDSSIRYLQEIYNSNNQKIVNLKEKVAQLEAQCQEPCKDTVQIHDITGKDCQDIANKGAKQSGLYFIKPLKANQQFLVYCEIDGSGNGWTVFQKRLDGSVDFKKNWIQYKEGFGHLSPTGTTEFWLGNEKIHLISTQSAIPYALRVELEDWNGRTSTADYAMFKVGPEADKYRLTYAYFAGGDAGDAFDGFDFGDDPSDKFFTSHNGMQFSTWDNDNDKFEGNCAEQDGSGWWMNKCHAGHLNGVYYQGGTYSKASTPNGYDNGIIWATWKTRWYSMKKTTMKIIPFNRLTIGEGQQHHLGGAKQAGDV
Nature of the test: Fibrin binding: binding of tPA to fibrin, tPA antigen in supernatant by ELISA. To be noted: 15 μg/ml peptide; 200 ng/ml single chain melanoma tPA, 200 μg/ml human fibrinogen; no peptide = 48. As for the experimental part:
Binding of tPA to fibrin was measured using the conventional method of Rijken et al., J. Biol. Chem. 257, 2920-2925 (1982). This method involves mixing thrombin with a solution containing tPA and fibrinogen, centrifuging the resulting clot and measuring the concentration of tPA antigen in the supernatant. In a final volume of 200 μl, the following were combined: 200 ng/ml single chain melanoma tPA, 200 μg/ml human fibrinogen, 15 μg/ml tPA peptide, 1.1 mg/ml bovine serum albumin, 0.55 mg/ml bovine gamma globulin and 10 mM ε-amino caproic acid in PBSAT. Controls omitted fibrinogen, peptide or both. Mixtures were clotted by the addition of 1 unit/ml bovine thrombin, incubated one hour at room temperature and centrifuged. tPA antigen in the supernatant was measured by conventional ELISA and the percentage bound calculated by difference using the antigen level of a control mixture with no fibrinogen as 0% bound. […] An ELISA assay kit for tPA and PAI-1 was purchased from American Diagnostica Inc. and assays were performed according to printed protocols supplied by the manufacturer with the kit except that a single lot of melanoma tPA from American Diagnostica Inc. (product 111, lot 47-01) was used as the antigen standard throughout this work and 5.0 mg/ml of BSA and 2.5 mg/ml of bovine gamma globulin were included in ELISA buffers.
In the case of “LGKHNYCRNPDGDAKPWCHVLKNRR-amide (LGKHNYCRNPDGDAKPWCHVLKNRR-NH2; cysteine pairing not given here) [Peptide 166, 25 amino acid synthetic peptide amide fragment of native human tPA]”, the “% Bound (binding of tPA to fibrin)” value is given as 57%.

On to “NPDRDSKPWCYVFKAGKYSSEFCST-amide (NPDRDSKPWCYVFKAGKYSSEFCST-NH2; cysteine pairing not given here) [Peptide 158, 25 amino acid synthetic peptide amide fragment of native human tPA]”, for which the “% Bound (binding of tPA to fibrin)” value was determined as 53%.

With “VPVKSCSEPRCFNGGTCQQALYFSD-amide (VPVKSCSEPRCFNGGTCQQALYFSD-NH2; cysteine pairing not given here) [Peptide 148, 25 amino acid synthetic peptide amide fragment of native human tPA]”, the “% Bound (binding of tPA to fibrin)” value is on record as 50%.
